Source: FireProtDB (doi:10.1016/j.jmb.2004.10.057)
Where “and” joins values, the source holds several entries; their conditions need not be identical. Equal entries are not always repeated.

Conditions: Mus musculus, pH 7.4, 20 °C, Tris-HCl 20 mM, whole UniProt chain shown

B1: Adenosine deaminase wild type, P03958 (protein)
chain: MAQTPAFNKPKVELHVHLDGAIKPETILYFGKKRGIALPADTVEELRNIIGMDKPLSLPGFLAKFDYYMPVIAGCREAIKRIAYEFVEMKAKEGVVYVEVRYSPHLLANSKVDPMPWNQTEGDVTPDDVVDLVNQGLQEGEQAFGIKVRSILCCMRHQPSWSLEVLELCKKYNQKTVVAMDLAGDETIEGSSLFPGHVEAYEGAVKNGIHRTVHAGEVGSPEVVREAVDILKTERVGHGYHTIEDEALYNRLLKENMHFEVCPWSSYLTGAWDPKTTHAVVRFKNDKANYSLNTDDPLIFKSTLDTDYQMTKKDMGFTEEEFKRLNINAAKSSFLPEEEKKELLERLYREYQ
denaturant m value (GdnHCl, Fluorescence): 2.08 kcal/mol/M | denaturant midpoint (higher = more stable) (GdnHCl, Fluorescence): 1.91 M | unfolding free energy (GdnHCl, Fluorescence): 3.98 kcal/mol | unfolding free energy (Urea, CD): 5.78 kcal/mol and 7.39 kcal/mol | denaturant midpoint (higher = more stable) (Urea, Enzyme assay): 0.68 M | denaturant m value (Urea, Fluorescence): 0.79 kcal/mol/M | denaturant midpoint (higher = more stable) (Urea, Fluorescence): 6.19 M | unfolding free energy (Urea, Fluorescence): 4.89 kcal/mol
